test: yeast display, Sf9 membrane polyspecificity reagent, FACS + sequencing; frameworks hold sequencing errors
In short: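 A nanobody's polyreactivity label depends on the gate it was sorted from. Yeast display cells were stained with 10% biotinylated, detergent-solubilized Sf9 membrane reagent for 1 hour at 4 °C, enriched on streptavidin microbeads and sorted by FACS. The low and high (top ~1%) gates were set on anti-HA fluorescence for expression and streptavidin fluorescence for reagent binding.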

Sequence	polyreactivity (PSR sort gate)
QVQLVESGGGLVQAGGSLRLSCAASGFTLQSNAMGWYRQAPGKERELVAAISFRGGSTYYADSVKGRFTISRDNAKNTVYLQMNSLKPEDTAVYYCAAVQVHLREYDYWGQGSQVTVSS	low polyreactivity
QVQLVESGGGLVQAGGSLRLICAASGSTLVANAMGGYRQAPGKERELVAAISSGGITYYADSVKGRFTISRDNAKNTVYLQMNSLKPEDTAVYYCAKRGQGFQFGRDYWGQGTQVTVSS	low polyreactivity
QVQLVESGGGLVQAGGSLRLSCAASGFTFYYYAMGWYRQAPGKERELVAAISSGGSTNYADSVKGRFTISRDNAKNTVYLPRNSLKPEDTAVYYCAAPQPYWWAYRYDYWGQGTQVTVSS	low polyreactivity
QVQLVESGGGLVQAGGSLRLSCAASGSTFLLYAMGWSRQAPGKERELVASISGDGSTNYADSVKGRFTISRDNAKNTVYLQMNSLKPEDTAVYYCARDTVHRLRISSVISNYWGQGTQVTVSS	low polyreactivity
QVQLVESGGGLVQAGGSLRLSCAASGRTFKYYAMGWYRQAPGKERELVATITWSGTSTNYADSVKGRFTISRDNAKNTVYLQMNSLKPEDTAVYYCAARSKRRNYDYWGQGTQVTVSS	high polyreactivity
QVQLVDSGGGLVQAGGILRLSCASSGITFPGYDMGWYRQAPGKERDLVARISRSGGSTYYADSVKGRFTISRDNAKNTVYLQMNSLKPEETAVYYCAAGAYRSGGYRFDYWGQGTQVTVSS	low polyreactivity
QVQLVESGGGLVQAGGSLRLSCAASGSTLGGYAMGWYRQAPGKERELVASISWDDVRTYYADSVKGRFTISRDNAKNTVYLQMNSLKPEDTAVYYCAKGDIEYFWSRIYGYWGQGTQVTVSS	low polyreactivity
QVQLVETGGGLVQAGGSLRLSCAASGRTFRWYAMGWYRQAPGKERELVADISSVGSTDYADSVKGRFTISRDNAKNTVYLQMNSLKPEDTAVYYCAADFSPRRYHNRSFGYWGQGTQVTVSS	low polyreactivity
QVQLVESGGGLVQAGGSLRLSCAASGRIFTYYGMGWYRQAPGKERELVAAISWSGGSTYYADSVKGRFTISRDNAKNTVYLQMNSLKPVDTAVYYCNAASRYGGDYWGQGTQVTVSS	high polyreactivity
QVQLVESGGGLVQAGGSLRLSCAASGRTFRVYAMGWYRQAPGKERELVAAITGSGDSTYYADSVKGRFTISRDNAKYTVYLQMNSLKPEDTAVYYCNAVYRSTFDYWGQGTQVTVSS	high polyreactivity
QVQLVESGGGLVQAGGSLRLSCAASGSIFGHYAMGWYRQAPGKERELVAAISWSGTSTYYADSVKGRFTISRDNAKNTVYLQMNSLKPEDTAVYYCAAEASYNYGKYVVTYDYWGQGTQVTVSS	high polyreactivity
QVQLVESGGGLVQAGGSLRLSCAASGSTFFRYARGWYIQAPGKEREFVAAISKRGGSTHYADSVKGRFTISRDNAKKTVYLQMNSLKPADTAVYYCAASSFTSSYNYWGQGTQVTVSS	high polyreactivity
QVQLVESGGGLVQAGGSLRLSCAASGFLFPKNAMGWSRQAPGTEMEWVAAISSGGARTYYADSVKGRFTISRDNAQNSVYEQMNSLKPEDTAVYYCAARTSPFWRGGGLDYWGQGTQVTVSS	high polyreactivity
QVQLEESGGSLVQAGGSLRLSCAASGRTFYHYAMGWYRPAPGKERQLVAAISSGGSTKYADSVKGRFTISRDNAKNTVYLQMNSLKPEDTAVYYCAARTYQKGGRYYYWGQGTHVTVSS	high polyreactivity
QVQLVESGGGLVQAGGSLRLSCAASGSIFASNTMGWYRQAPGKERELVAGITKIGSSTYYADSVKGRFTISRDNAKNTVYLQMNSLKPEDTAVYYCAAGAWRGPYSGYYYWGQGTQVTVST	low polyreactivity
QVQLVESGGGLVQAGGSLRLSCAASGFIFVYYVMGWYRTAPGKERELVAAITQSGGSTYYADSVKGRFTISRDNAKNTVYLQMNSLKPEDTAVYYCAAYRRTTGGGYDYWGQGTQVTVSS	high polyreactivity
QVQLVESGGGLVQAGGSLRLSCAASGSIFDDFAMGWYRQAPGKERELVAAISWSGGRTYYADSVKGRFTISRDNAKNTVYLHMNSLKPDDTAVYYCAATTGVRSRRYYYWGQGTQVTVSS	low polyreactivity
QVQLEESGGGLVQAGGSLRLSCAASGSIYYLNAMGWYRQAPGKERELVAAINSGGTTNYADSVKGRFTISRDNAKYTVYLQMNSLKPEDTAVYYCATDGYYYYYRVYKFDYWGQGTQVTVSS	low polyreactivity
QVQLVESGGRLVQAGGSLSISCAASGSTFTSYSMGWYRQAPGKERELVAAIRRIGGDTYYADSVKGRFTISRDNAKNTVYLQMNSLKPEDTAVNYCAAVRWRSEPYWYHAMEHWGQGTQVTVSS	low polyreactivity
QVQLVESGGGLVQAGGSLRLSCAASGSTFFKYGMGWYRQAPGKERELVATISSRGGNTSYADSVKGRFTISRDNAKNTVYLLMNSLKPEVTAVYLCNAKLVYVGDTTTWGQGTQVTVSS	low polyreactivity
QVQLVESGGGLVQAGGSLSLSCAASGSTFVINAMGWYRPAPRKERELLAAIRGRCVSTSYADSVKGRFTISRDIAKNTVYLQMNSLKPEDTEVYYCAADSRTGYYYWGQGTQVTVSS	high polyreactivity

Sequence	polyreactivity (PSR sort gate)
QVQLVESGGGLVQAGGSLRLSCAASGSTFYYYAMGWYSQAPGKERDLVAVISWGGGSTYYADSVKGRFTISRDNAKNTVYLQMNSLKPEDTAVYYCAAVYDAYQTTDEYDYWGQGTQVTVSS	low polyreactivity
QVQLVESGGGLVQAGGSLRLSCAASGIIFGYYAMGRYRQAPGKERELVAAITWSGGSTYYADSVKGRFTISRDNAKNTVYLQMNSLKPEDTAVYYCAAGDPTLLNESFDYWGQGTQVTVSS	low polyreactivity
QVQLVESGGGLVQAGGSLRLSCAASGRIFSPYAMGWYRQAPGKERELVAAINYSGSRTYYADSVTGRFTISRDNAKNTVYLQMNSLKPEDTAVYYCARPWAPSSRGNGYWGLGTQVTVSS	high polyreactivity
QGQLVESGGGLFQAGGSLRLSCDDSGRTFSGYAMGWYRQAPGKEREFVAAITWSGGSTYYADSVKGRFSISRDNAKNTVYLQMNSLKPEDTAVYYCAARDYTRYGYGYWGQGTQVTVSS	high polyreactivity
QVQLVESGGGLVQAGGSLRLSCAASGSTFIYYTMGWYRQAPGKERELVAASSWSGGNTYYADSVKGRFTISRDNAKNTVYLQMNSLKPEDTAVYYCAATRFSQYDWGQGTQVTVSS	high polyreactivity
QVQLVESGVGLVQAGGSLRLSCAASGRTFAQYAMGCYRQAPGKERELVAVISRCTGRTYYADSVKGRFTISRDNAKNTVYLQMNSLKPEDTALYYCNTSPKLTYALLYVYWGQGTQVNVSS	high polyreactivity
QVQLVESGGGLVQAGGSHRLSCAASGITFYGNAMGWYRQAPGKERELVAGITSGGNTYYADSVKGRFTISRDNAKNTVYLQMNSLKPEDTAVYYCAAGYFSYRSYYYYRYDYWGQGTQVTVSS	high polyreactivity
QVQLVESGGGLVQAGGSLRLSCAASGSIFVRYTMGWYRQAPGKERELVAGISSRGGSTYYADSVKGRFTISRDNAKNTVYLQMNSLKPEDTAVYYCAATYFRRVVPGYNYWGQGTQVTVSS	high polyreactivity
QVQLVETGGGLVQAGGSFRLSCAASGGIFRTYAKGWYRQAPGKERELVAAISRSGGSTYYADSVKGRFTISRDNAKNTVYLQMNSLKPEDTAVYYCAASRPYYPLYGYWGQGTQVTVSS	high polyreactivity
QVQLVESGGGLVQAGGSLRLSCAASGRIFYYYAMGWYRQAPGKERELVAAISASGASTYYADSVKGRFTISRDNAKNTVYLQMNSLKPEDTAVYYCAAEEFYYYSADWYDYWGQGTQVTVSS	high polyreactivity
QVQLVESGGGLVQEGGSLRLICAASGSTFAANTMGWYRQEPGKERELVAAITDRGGSTYYADSVKGRFTISRDNAKNTVYLQMITLKPEDTAVYYSAAERPPYGYLVVGYVSTQYYYWGQGTQVTVSS	low polyreactivity
QVQLVESGGRLVQAGGSLRLSCAASGIIFRFYPMGWSRQAPGKERELVAAIRTSGGSTYYADSVKGRFTISRDNAKNTVYLQMNSLKPEDTAVYYCAAGPRAYSYRIYALYYWGQGTQVTVSS	high polyreactivity
QVQLVESGGGLVQAGGSLRLSCAASGSIFVRNAMGWCRQAPGKERELVAAITARGGSTYYADSVKGRFTISRDNAKNTVYLQMNSLKPEDTAVYYCARSYYYRGWAQWRYDYWGQGTQVTVSS	high polyreactivity
QLQLVESGGGLVQAGGRLRLTCAASGRTFPYYFMGWYRPAPGKERELVAAINSGGRTNYADSVKGLFTISRDNAKNTVYLQMNSLKPEDTAVYYCTKRGHPARLGYYYWGQGTQVTVSS	low polyreactivity
QVQLVESGGGLVQAGGSLRLSCAASGRIFPRYAMGWYTQAPGKERELVAAITTGGSTYADSVKGRFTISRDNAKNTVYLQMNSLKPEDTAVYYCGVDGYVAFSPDRNNYWGQGTQVTVSA	low polyreactivity
QVQLVESGGGLVQAGGSLRLSCAASGNIFARYAMGWYRQAPGKERELVAAISRSGGSTYYADSVKGRFTISRDNAKNTVYLQMNSLKPEDTAVYYCNAKSYGVLYWFAYDYWGQGTQVTVSS	high polyreactivity
QVQLQESGGGQVLAGGSLRLSCAASGSISAQAYMGWDRQAPGKEREHVAGINYGDNTNYADSVKGRFTISRDNEHRVSADEQPVSGRYRGVLLRGFLELFYYYIYWGQGTQVNVSS	high polyreactivity
QVQLVESGGGLVQAGGSLRLSCAASGSILLFYVMGGYRQAPGKERELVAAITSSGGGTYYADSVKGRFTISRDNAKNTVYLQMNSLKPEDTALYYCNADDDYYGESYGPEFDYWGQGTQVTVSS	low polyreactivity
QVQLVESGGGLVQAGGSLRLSCAASGRTISVYGMGWSRQAPGKERELVASITWRGGTTYYADSVKGRFTISRDNAKNSVYLQMNRLKPEDTAVYYCAAYWPYTTYRYRYDYWGQGTQVTVSS	high polyreactivity
QVQLVESGGGLVQAGGSLRLICAASGFTFPWYAMGWYRQAPGKERELVATITSGGRTNYADSVKGRFTISRDNAKNTVYLQMNSLKPEDTAVYYCAARASKYSYRTDPWHGDYWGQGTQVTVSS	high polyreactivity

— the nanobody polyreactivity screen of Harvey et al. (2022)
